The record followed here is patent US9926369B2, “Methods for treating hepatocellular cancer by administering an anti-Ang-2 antibody” (Regeneron Pharmaceuticals, Inc., priority 2009, dated 2018).

In assay [1] the target is biotin-hBA2 binding to hTie-2 (Homo sapiens, UniProt O15123). Nature of the assay: ELISA blocking of biotinylated hBA2 binding to hTie-2-His. The format is biochemical. To be noted: 20 pM biotinylated hBA2; average of two separate experiments; read-out: Biotin - hBA2 Average IC50. The method, then: For this experiment, human Tie-2 conjugated to a histidine tag (hTie-2-His; SEQ ID NO:526) was used in a similar fashion to the hTie-2-mFc described above. Antibody concentrations from 5 nM were serially diluted three-fold. […] An average IC50 value for each antibody was calculated based on two separate experiments.

Assay [2] concerns Tie-2 phosphorylation (Ang-2-mediated) in HUVECs. Nature of the assay: Inhibition of Ang-2-mediated Tie-2 phosphorylation in FOXO1-adenovirus infected HUVECs. The format is cell-based, human. To be noted: antibody 0.5 μg/ml. A digest of the protocol:
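FOXO1-adenovirus-infected HUVECs, which secrete Ang-2, received anti-Ang-2 antibodies at 0.5 μg/ml in MCDB131. Percent inhibition was the reduction in phospho-Tie-2/Tie-2 ratio versus control.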

Chain of biotin-hBA2 binding to hTie-2 (O15123 with tags, fused parts or gaps): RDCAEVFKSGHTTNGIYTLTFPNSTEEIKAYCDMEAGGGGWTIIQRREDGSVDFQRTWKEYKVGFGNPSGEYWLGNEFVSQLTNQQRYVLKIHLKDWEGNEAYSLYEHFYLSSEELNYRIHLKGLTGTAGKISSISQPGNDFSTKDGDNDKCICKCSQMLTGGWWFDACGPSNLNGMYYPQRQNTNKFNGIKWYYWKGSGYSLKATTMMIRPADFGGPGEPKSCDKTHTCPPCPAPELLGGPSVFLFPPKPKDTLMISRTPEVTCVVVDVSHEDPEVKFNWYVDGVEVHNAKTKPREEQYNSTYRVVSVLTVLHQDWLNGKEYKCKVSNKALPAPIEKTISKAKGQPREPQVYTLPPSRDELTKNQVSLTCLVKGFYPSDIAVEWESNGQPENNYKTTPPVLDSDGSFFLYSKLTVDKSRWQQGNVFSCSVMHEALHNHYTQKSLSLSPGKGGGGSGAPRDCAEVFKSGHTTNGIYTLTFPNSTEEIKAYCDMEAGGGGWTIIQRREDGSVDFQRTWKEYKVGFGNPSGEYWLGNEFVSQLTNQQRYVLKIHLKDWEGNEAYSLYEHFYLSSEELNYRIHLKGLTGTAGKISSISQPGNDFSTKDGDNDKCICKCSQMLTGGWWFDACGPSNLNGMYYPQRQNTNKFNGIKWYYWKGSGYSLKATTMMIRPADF

B1: H1M728N: anti-Ang-2 antibody, HCVR/LCVR SEQ ID NOs 290/298 (antibody, V domains shown)
VH: EVQLVESGGDLVQPGGSLRLSCTASGFTFSKYWMTWVRQAPGRGLEWVANIKEDGNEKYFLDSVKGRFTISRDNAKDLLFLQMNSLRGEDTAVYYCVRDRGIEVAGPFDYWGQGTLVTVSS
VL: DIQMTQSPSTLSASVGDRVTVTCRASQTIINWLAWYQQKPGKAPKLLISKASSLESGVPSRFSGSGSGTEFTLTISSLQPDDFATYYCQQYNRYWTFGQGTMVEIK
Broadly, the IC50 is the concentration that gives 50% inhibition. With B1, the IC50 in assay [1] is 0.0141 nM. In addition, the “Inhibition of Tie-2 phosphorylation” value in assay [2] is listed as “++ (50-75%)”.
